The text below walks through data of article PMC6858323, “Multiple conformations facilitate PilT function in the type IV pilus” (Nature Communications, 2019).

Residue numbers refer to the chain shown, from its start. Names and notes keep the numbering of the source.

The series deals with the molecule itself. Nature of the series: cryoEM 2D class averages; PilT^Pa 0.75 mg/ml without added nucleotide, 4 °C; top-view 2D class averages compared with projections of PilT crystal structures.

B1: PilT from Pseudomonas aeruginosa (PilT^Pa), purified (enzyme)
chain: MDITELLAFSAKQGASDLHLSAGLPPMIRVDGDVRRINLPPLEHKQVHALIYDIMNDKQRKDFEEFLETDFSFEVPGVARFRVNAFNQNRGAGAVFRTIPSKVLTMEELGMGEVFKRVSDVPRGLVLVTGPTGSGKSTTLAAMLDYLNNTKYHHILTIEDPIEFVHESKKCLVNQREVHRDTLGFSEALRSALREDPDIILVGEMRDLETIRLALTAAETGHLVFGTLHTTSAAKTIDRVVDVFPAEEKAMVRSMLSESLQSVISQTLIKKIGGGRVAAHEIMIGTPAIRNLIREDKVAQMYSAIQTGGSLGMQTLDMCLKGLVAKGLISRENAREKAKIPENF
notes: PilT, Pseudomonas aeruginosa, expressed from pET28a:PilT^Pa; the cloning of this plasmid is not described; also called apo-PilT^Pa; wild-type PilT^Pa; source: E. coli BL21-CodonPlus, purified (Ni-NTA, Superdex 200 SEC)
Usually stoichiometry N stands for a count of units in the complex or per binding partner. As to B1, the “stoichiometry N” value was 6.

B2: K58A PilT from Pseudomonas aeruginosa, purified (enzyme)
chain: B1 chain with K58A
notes: PilT, Pseudomonas aeruginosa, with K58A; the expression construct of the purified mutant is not described; also called K58A PilT^Pa; K58A mutant; source: purified
Take B2: the “stoichiometry N” value came to 6.
